The values below come from patent US20140341931A1.

For assay [1], the target named is recombinant sCD27 containing 6x his-Tag at the carboxyl terminus (human) (UniProt P26842). As to the kind of experiment: mock depletion on plate coated with control IgG, sCD27 ELISA of the supernatant. In general terms: In an ELISA, binding on a coated surface is turned into a signal by an enzyme label.
In assay [2] the target is High mobility group protein B1 (human) (UniProt P09429). Kind of assay: control (background) lane of the PolyHis pull-down, no bait peptides detected, mass spectrometry.
High mobility group protein B1 (human), sequence (P09429 whole entry): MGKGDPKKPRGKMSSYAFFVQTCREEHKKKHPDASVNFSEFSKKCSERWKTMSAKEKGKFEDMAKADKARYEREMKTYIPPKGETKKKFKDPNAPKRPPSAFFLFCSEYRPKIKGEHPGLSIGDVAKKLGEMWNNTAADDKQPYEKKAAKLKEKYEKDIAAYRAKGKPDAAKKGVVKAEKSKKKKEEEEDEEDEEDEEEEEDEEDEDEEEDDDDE
Assay [3] concerns the target Myosin IIA (human) (UniProt P35579). The description is as above.
Assay [4] deals with High mobility group protein B1 (human) (UniProt P09429). As to the kind of experiment: PolyHis pull-down with sCD27-his as bait from lysate of stimulated PBMCs, SDS-PAGE, mass spectrometry.
Assay [5] has as its target Myosin IIA (human) (UniProt P35579). Described as above.

Myosin IIA (human), sequence (P35579 2-1960 limits assumed): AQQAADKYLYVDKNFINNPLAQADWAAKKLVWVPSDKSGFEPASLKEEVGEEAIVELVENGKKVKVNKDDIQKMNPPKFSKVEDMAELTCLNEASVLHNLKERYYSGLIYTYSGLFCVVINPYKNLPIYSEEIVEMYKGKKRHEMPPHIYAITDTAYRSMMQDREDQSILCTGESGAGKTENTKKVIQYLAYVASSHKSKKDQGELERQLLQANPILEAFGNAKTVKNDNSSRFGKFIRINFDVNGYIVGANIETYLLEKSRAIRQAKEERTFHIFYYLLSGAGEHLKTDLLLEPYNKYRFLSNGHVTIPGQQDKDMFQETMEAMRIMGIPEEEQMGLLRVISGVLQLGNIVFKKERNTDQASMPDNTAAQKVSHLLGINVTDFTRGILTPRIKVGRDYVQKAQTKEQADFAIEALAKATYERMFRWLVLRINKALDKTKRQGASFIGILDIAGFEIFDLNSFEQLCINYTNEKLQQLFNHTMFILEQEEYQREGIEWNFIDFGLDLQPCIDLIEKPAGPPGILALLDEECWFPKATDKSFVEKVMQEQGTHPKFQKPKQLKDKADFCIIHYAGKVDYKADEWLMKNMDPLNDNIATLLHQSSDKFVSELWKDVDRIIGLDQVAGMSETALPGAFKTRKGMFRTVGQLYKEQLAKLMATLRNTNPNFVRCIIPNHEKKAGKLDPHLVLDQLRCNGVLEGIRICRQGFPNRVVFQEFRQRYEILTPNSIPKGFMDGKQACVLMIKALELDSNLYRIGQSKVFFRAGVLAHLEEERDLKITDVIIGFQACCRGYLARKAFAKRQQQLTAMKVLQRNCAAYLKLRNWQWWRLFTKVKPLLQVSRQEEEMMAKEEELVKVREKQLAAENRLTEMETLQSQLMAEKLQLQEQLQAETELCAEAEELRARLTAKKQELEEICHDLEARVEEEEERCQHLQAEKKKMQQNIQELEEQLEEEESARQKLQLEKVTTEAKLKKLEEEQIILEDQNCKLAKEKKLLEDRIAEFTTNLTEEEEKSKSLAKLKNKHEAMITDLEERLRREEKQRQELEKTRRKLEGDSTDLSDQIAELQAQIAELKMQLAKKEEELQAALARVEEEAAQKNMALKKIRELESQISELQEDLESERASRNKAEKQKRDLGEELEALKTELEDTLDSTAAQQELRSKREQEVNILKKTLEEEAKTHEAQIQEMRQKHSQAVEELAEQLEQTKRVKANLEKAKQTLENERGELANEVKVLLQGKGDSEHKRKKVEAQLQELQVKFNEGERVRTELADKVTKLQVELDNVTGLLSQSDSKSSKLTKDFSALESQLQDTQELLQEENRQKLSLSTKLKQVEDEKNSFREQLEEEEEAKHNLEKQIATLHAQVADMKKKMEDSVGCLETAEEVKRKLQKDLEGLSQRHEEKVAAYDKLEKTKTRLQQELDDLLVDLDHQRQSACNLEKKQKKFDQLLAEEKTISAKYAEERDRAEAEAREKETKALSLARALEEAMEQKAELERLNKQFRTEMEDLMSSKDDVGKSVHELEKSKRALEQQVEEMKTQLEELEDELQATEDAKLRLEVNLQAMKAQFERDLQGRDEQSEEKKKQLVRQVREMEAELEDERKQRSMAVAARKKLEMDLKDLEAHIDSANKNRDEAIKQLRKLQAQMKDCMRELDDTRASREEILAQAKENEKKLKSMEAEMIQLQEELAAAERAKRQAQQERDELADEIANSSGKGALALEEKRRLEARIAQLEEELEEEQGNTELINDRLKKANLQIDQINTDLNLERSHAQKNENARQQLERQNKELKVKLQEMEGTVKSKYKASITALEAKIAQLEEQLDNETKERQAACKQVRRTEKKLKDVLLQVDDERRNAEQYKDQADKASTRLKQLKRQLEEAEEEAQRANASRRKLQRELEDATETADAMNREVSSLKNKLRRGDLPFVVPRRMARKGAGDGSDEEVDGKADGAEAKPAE

For “IgG control (R&D Systems Inc.) (antibody)”, in assay [1], the sCD27 value left after depletion was determined as 1.4 ng/mL.
In the case of “recombinant sCD27 containing 6x his-Tag at the carboxyl terminus (from UniProt P26842 20-189) (receptor)”, the TPC (total peptide count) in Lane 4 (background) is 5 peptides in assay [2] and 14 peptides with Myosin IIA (human) [3]. The TPC (total peptide count) in Lane 2 (positive) in assay [4] turned out to be 44 peptides; with Myosin IIA (human) [5] it was 79 peptides.
